From publication PMC6382854 (2019)

Target: taxol-stabilized microtubules (polymerized porcine tubulin) (porcine, UniProt P02550 1-451; P02554 1-445)
Sequence (P02550 whole entry, chain 1 of 2): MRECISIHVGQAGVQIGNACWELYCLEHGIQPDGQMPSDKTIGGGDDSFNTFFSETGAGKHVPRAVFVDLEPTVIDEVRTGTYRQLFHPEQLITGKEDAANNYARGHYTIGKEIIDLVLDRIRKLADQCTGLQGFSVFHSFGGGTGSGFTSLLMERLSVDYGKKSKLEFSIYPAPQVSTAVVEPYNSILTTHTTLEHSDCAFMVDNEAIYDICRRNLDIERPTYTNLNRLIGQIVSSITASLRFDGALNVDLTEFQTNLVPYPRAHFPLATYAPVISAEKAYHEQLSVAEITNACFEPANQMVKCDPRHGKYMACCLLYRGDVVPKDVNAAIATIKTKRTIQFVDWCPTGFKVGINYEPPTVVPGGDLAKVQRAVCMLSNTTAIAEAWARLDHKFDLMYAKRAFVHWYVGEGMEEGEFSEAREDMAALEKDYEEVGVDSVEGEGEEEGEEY
Sequence (P02554 whole entry, chain 2 of 2): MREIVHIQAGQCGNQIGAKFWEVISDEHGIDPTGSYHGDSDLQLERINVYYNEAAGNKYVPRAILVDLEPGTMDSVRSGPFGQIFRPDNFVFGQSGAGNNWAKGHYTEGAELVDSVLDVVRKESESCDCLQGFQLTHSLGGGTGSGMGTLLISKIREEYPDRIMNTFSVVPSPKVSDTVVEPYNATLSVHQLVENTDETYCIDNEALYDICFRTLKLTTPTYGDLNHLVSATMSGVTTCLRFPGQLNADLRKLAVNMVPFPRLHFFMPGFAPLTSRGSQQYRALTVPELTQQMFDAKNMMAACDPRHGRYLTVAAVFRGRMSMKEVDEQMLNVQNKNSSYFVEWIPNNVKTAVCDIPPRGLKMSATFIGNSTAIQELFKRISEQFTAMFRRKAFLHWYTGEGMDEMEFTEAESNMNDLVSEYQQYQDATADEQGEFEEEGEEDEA

Row | Binder | Kd [µM]
1 | 6xHis-tagged CC1ΔC223 (cytosolic N-terminal part of COMPANION OF CELLULOSE SYNTHASE 1, residues 1-120) (domain or fragment) MHAKTDSEVTSLAASSPARSPRRPVYYVQSPSRDSHDGEKTATSFHSTPVLSPMGSPPHSHSSMGRHSRESSSSRFSGSLKPGSRKVNPNDGSKRKGHGGEKQWKECAVIEEEGLLDDGD | 6.9
2 | 6xHis-tagged CC1ΔC223YYAA (domain or fragment) MHAKTDSEVTSLAASSPARSPRRPVAAVQSPSRDSHDGEKTATSFHSTPVLSPMGSPPHSHSSMGRHSRESSSSRFSGSLKPGSRKVNPNDGSKRKGHGGEKQWKECAVIEEEGLLDDGD | 16.3
